Experimental findings from US20100150950A1, “HUMAN ANTIBODIES THAT BIND CD70 AND USES THEREOF” (Medarex, Inc., priority 2006, published 2010) are described below.

Series [1] relates to 786-O human renal cancer cell line. Description: Internalization by immunofluorescence staining. The series is classed as cell-based. As for the experimental part: The 786-O human renal cancer cell line was used to test the internalization of HuMab anti-CD70 antibodies 69A7 and 2H5 upon binding to the cells using immuno-fluorescence staining. 786-O cells (1×10^4 cells per 100 μl per well in a 96-well plate) were harvested from a tissue culture flask by treatment with 0.25% Trypsin/EDTA, then incubated with each of the HuMab anti-CD70 antibodies at 5 μg/ml in FACS buffer (PBS+5% FBS, media) for 30 minutes on ice. A human IgG1 isotype control was used as a negative control. Following 2 washes with media, the cells were re-suspended in the media (100 μl per well) and then incubated with goat anti-human secondary antibody conjugated with PE (Jackson ImmunoResearch Lab) at 1:100 dilution on ice for 30 minutes. The cells were either immediately imaged for morphology and immunofluorescence intensity under a fluorescent microscope (Nikon) at 0 min or incubated at 37° C. for various times. […] Similar results were also obtained with FITC-direct conjugated HuMab anti-CD70 antibodies in the assays. […] At the 120 min timepoint, membrane fluorescence was not apparent, but instead appeared to be present in intracellular compartments.

A further series has as its system MEC-1 cells. As to the kind of experiment: ADCC fluorescence cytotoxicity assay, MEC-1. It counts as cell-based, human. The settings on record: target to effector ratio 1:50. The method, then:
In this example, a defucosylated and non-defucosylated anti-CD70 monoclonal antibody was tested for the ability to kill CD70+cells in the presence of effector cells via antibody dependent cellular cytotoxicity (ADCC) in a fluorescence cytotoxicity assay
Human Anti-CD70 monoclonal antibody 2H5 was defucosylated as described above. Human effector cells were prepared from whole blood as follows. Human peripheral blood mononuclear cells were purified from heparinized whole blood by standard Ficoll-paque separation. The cells were resuspended in RPMI1640 media containing 10% FBS (culture media) and 200 U/ml of human IL-2 and incubated overnight at 37° C. The following day, the cells were collected and washed once in culture media and resuspended at 2×10^7 cells/ml. […]
The CD70+ cell lines ARH-77 (human B lymphoblast leukemia; ATCC Accession No. CRL-1621), MEC-1 (human chronic B cell leukemia; DSMZ Accession No. ACC 497), SU-DHL-6 (human B cell lymphoma, DSMZ Accession No. Acc572), IM-9 (human B lymphoblast; ATCC Accession No. CCL-159) and HuT 78 (human cutaneous lymphocyte lymphoma; ATCC Accession No. TIB-161), were tested for antibody specific ADCC to the defucosylated and non-defucosylated human anti-CD70 monoclonal antibody 2H5 using the Delfia fluorescence emission analysis as follows. […]

The subject of a further series is activated T cells. Description: ADCC fluorescence cytotoxicity assay, activated T cells. The series is classed as cell-based, human. As for the experimental part:
In this example, a defucosylated and non-defucosylated anti-CD70 monoclonal antibody was tested for the ability to kill activated T cells in the presence of effector cells via antibody dependent cellular cytotoxicity (ADCC) in a fluorescence cytotoxicity assay.
Human Anti-CD70 monoclonal antibody 2H5 was defucosylated as described above. Human effector cells were prepared as described above. Human spleen T cells were positively selected with anti-CD3 coated magnetic beads (Purity>90%). The cells were stimulated with anti-CD3 and anti-CD28 coated beads and 25 ng/ml IL-2 in Iscove's media+10% heat inactivated FCS for 6 days. Cells were collected and assayed for viability by propidium iodide incorporation (60% viable) and live cells were gated and analyzed for CD70 expression (˜65% CD70+ on live cells) prior to inclusion in ADCC assays.
The activated T cells were tested for antibody specific ADCC to the defucosylated and non-defucosylated human anti-CD70 monoclonal antibody 2H5 using the Delfia fluorescence emission analysis as follows. […] Following a 2100 rpm pulse spin and one hour incubation at 37° C., the supernatants were collected, quick spun again and 20 μl of supernatant was transferred to a flat bottom plate, to which 180 μl of Eu solution (Perkin Elmer, Wellesley, Mass.) was added and read in a Fusion Alpha TRF plate reader (Perkin Elmer). […]

Positions count from the first letter of the chain named.

B1: anti-CD70 human monoclonal antibody 69A7 (antibody, V domains shown)
VH: QVQLQESGPGLVKPSETLSLTCTVSGGSVSSDYYYWSWIRQPPGKGLEWLGYIYYSGSTNYNPSLKSRVTISVDTSKNQFSLKLRSVTTADTAVYYCARGDGDYGGNCFDYWGQGTLVTVSS
VL: EIVLTQSPATLSLSPGERATLSCRASQSVSSYLAWYQQKPGQAPRLLIFDASNRATGIPARFSGSGSGTDFTLTISSLEPEDFAVYYCQQRSNWPLTFGGGTKVEIK
notes: Human IgG from hybridoma; also called HuMAb 69A7; FITC-conjugated 69A7
For the molecule B1, the membrane fluorescence intensity entry in series [1] (30 min incubation at 37° C.) is on record as “significantly decreased”. The membrane fluorescence entry in series [1] (120 min timepoint) was “not apparent”. In addition, in series [1] (antibody 5 μg/ml, 37° C.), the internalization upon binding entry was “specifically internalized”.

B2: 2H5 NF: 2H5 HuMAb lacking fucosyl residues, expressed in CHO cell line Ms704-PF (antibody, V domains shown)
VH: QVQLVESGGGVVQPGRSLRLSCAASGFTFSSYIMHWVRQAPGKGLEWVAVISYDGRNKYYADSVKGRFTISRDNSKNTLYLQMNSLRAEDTAVYYCARDTDGYDFDYWGQGTLVTVSS
VL: B1 VL with F49Y, S92T
On to B2, for which the “ADCC, % specific lysis of MEC-1” value in the series with MEC-1 cells is given as “increased percentage of specific lysis”. Moreover, the “antibody mediated cytotoxicity with addition of anti-CD16 antibody” value in the series with activated T cells (activated T cells) is reported as “blocked”. Also, in the series on activated T cells (target to effector ratio 1:50), the “ADCC, % specific lysis of activated T cells” value was “increased percentage of specific lysis”.
